Test results from patent US6960343B2, “Toll/interleukin-1 receptor adapter protein (TIRAP)” (Yale University School of Medicine, priority 2001, dated 2005).

Tests used:
TLR4 = target: T1, TLR4 (Homo sapiens, UniProt O00206); experiment: Co-immunoprecipitation with Myc-tagged TLR4 in 293T cells; format: binding; details: 293T cell lysates, anti-Flag immunoprecipitation
T1 construct: a Myc-tagged TLR4 deletion construct lacking the ectodomain (Myc TLR4 wt); Myc; expressed in transfected cells; host or cells: 293T cells
T1 sequence (O00206 653-839 limits assumed): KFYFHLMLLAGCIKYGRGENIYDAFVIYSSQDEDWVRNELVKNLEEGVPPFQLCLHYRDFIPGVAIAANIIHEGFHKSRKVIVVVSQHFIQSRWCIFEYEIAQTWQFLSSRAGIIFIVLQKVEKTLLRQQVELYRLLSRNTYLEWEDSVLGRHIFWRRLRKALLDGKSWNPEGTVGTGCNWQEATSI
Description: (§1) Cells were transfected in the presence (+) or absence (−) of constructs encoding a wild-type portion of TLR4 (TLR4 wt), a mutant derivative thereof (TLR4 mut), wild-type TIRAP (TIRAP), a mutant TIRAP containing a P125H mutation (TIRAP PH), or wild-type MyD88 (MyD88), wherein each construct further encodes a Myc, Flag, or hemaglutanin (HA) tag, as indicated. Antibodies used for immunoprecipitation (IP) or immunoblot (IB) are indicated to the left of each blot.
(§2) To obtain biochemical conformation for a role of TIRAP in the TLR4 signaling pathway, TIRAP-TLR4 protein interactions were evaluated using co-immunoprecipitation experiments. 293T cells were co-transfected with 4.5 μg of a Myc-tagged TLR4 deletion construct lacking the ectodomain (Myc TLR4 wt) or its mutant derivative (Myc TLR4 P714H) in the presence or absence of 1.5 μg of Flag-tagged TIRAP (Flag TIRAP) or its mutant derivative containing the P125H mutation (Flag TIRAP PH). […] Immunocomplexes were washed, separated by SDS-PAGE electrophoresis, and then analyzed by immunoblotting with either anti-myc antibody to look for co-immunoprecipitated TLR4 or anti-Flag antibody to confirm immunoprecipitation of Flag TIRAP or Flag TIRAP P125H. Total cell lysates (35 μg/sample) were likewise analyzed by SDS-PAGE and immunoblotting to confirm equivalent expression of the appropriate proteins in every sample. […]

MyD88 = target: T2, MyD88 (Homo sapiens, UniProt Q99836); experiment: Co-immunoprecipitation with Flag-tagged MyD88 in 293T cells; format: binding; details: 293T cell lysates
T2 construct: Flag; expressed in transfected cells; host or cells: 293T cells
Description: as §1
as §2, with “experiments.” for “experiments. 293T cells were co-transfected with 4.5 μg of a Myc-tagged TLR4 deletion construct lacking the ectodomain (Myc TLR4 wt) or its mutant derivative (Myc TLR4 P714H) in the presence or absence of 1.5 μg of Flag-tagged TIRAP (Flag TIRAP) or its mutant derivative containing the P125H mutation (Flag TIRAP PH).”
(§3) Similarly, the interaction between TIRAP and MyD88 was examined. […] Direct interactions between TIRAP and the TIR domain of TLR4 was also detected using in vitro glutathione S transferase (GST) pull-down assays.

IRAK = IRAK (Homo sapiens, UniProt P51617); experiment: Association with IRAK; format: binding
TIRAP = target: T3, TIRAP (Homo sapiens, UniProt P58753); experiment: Co-immunoprecipitation of HA TIRAP with Flag TIRAP (homodimerization); format: binding; details: 293T cell lysates
T3 construct: Flag; expressed in transfected cells; host or cells: 293T cells
Description: as §1
as §2, with “experiments.” for “experiments. 293T cells were co-transfected with 4.5 μg of a Myc-tagged TLR4 deletion construct lacking the ectodomain (Myc TLR4 wt) or its mutant derivative (Myc TLR4 P714H) in the presence or absence of 1.5 μg of Flag-tagged TIRAP (Flag TIRAP) or its mutant derivative containing the P125H mutation (Flag TIRAP PH).”
as §3

TIR domain of TLR4 = target: T4, TIR domain of TLR4 (Homo sapiens, UniProt O00206); experiment: In vitro glutathione S transferase (GST) pull-down assay; format: binding
T4 sequence (O00206 672-815 limits assumed): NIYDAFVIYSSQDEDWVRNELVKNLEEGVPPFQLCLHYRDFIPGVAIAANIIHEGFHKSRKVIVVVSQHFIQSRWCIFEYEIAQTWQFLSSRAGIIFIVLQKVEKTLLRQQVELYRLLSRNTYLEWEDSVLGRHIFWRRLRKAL
Description: Similarly, the interaction between TIRAP and MyD88 was examined. 293T cells were transfected with 1.5 μg of either HA-tagged TIRAP (HA TIRAP) alone or in combination with 1.5 μg of either Flag-tagged MyD88 (Flag MyD88), Flag-tagged TIRAP (Flag-TIRAP), or Flag-tagged TIRAP P125H (Flag TIRAP PH). Immunoprecipitation and analyses of immunocomplexes as well as total cell lysates were done as described above. […] Direct interactions between TIRAP and the TIR domain of TLR4 was also detected using in vitro glutathione S transferase (GST) pull-down assays.

PKR = experiment: Co-immunoprecipitation with HA PKR kinase dead mutant in 293T cells; format: binding; details: 293T cell lysates
Description: (§4) (A) Bone marrow-derived macrophages from either wild-type (WT) or MyD88-deficient (MyD88^−/−) mice were stimulated for the indicated time periods (minutes) with either LPS or CpG, and immunoblots were performed using an antibody that specifically recognizes phosphorylated PKR (PKR-P). B and C Cells were transfected with constructs encoding Flag-tagged TIRAP and either a construct encoding an HA-tagged kinase dead mutant of PKR (HA PKR KD) or p58, as indicated. Antibodies used for immunoprecipitation (IP) or immunoblot (IB) are indicated to the left of each blot, and arrows on the right show the location of the indicated proteins.
To determine whether PKR and TIRAP interact, lysates from 293T cells transfected with either 3.5 μg of an HA PKR kinase dead (KD) mutant […] 1.5 μg of Flag TIRAP were subjected to immunoprecipitation analyses as described above, followed by SDS-PAGE and immunoblotting with the indicated antibodies. The PKR KD mutant rather than wild type PKR was used because overexpressing PKR induces cell death. PKR did, in fact, co-immunoprecipitate with TIRAP (FIG. 4B), further supporting the link between PKR and TIRAP established above.

p58 = experiment: Co-immunoprecipitation with p58 in 293T cells; format: binding; details: 293T cell lysates
Description: as §4
(§5) Because TIRAP may not regulate PKR directly, the interaction between TIRAP and two other proteins, p58 and PACT, was analyzed. p58 is a tetratricopeptide repeat-containing protein that negatively regulates PKR activity (Lee 1994), and PACT is a dsRNA-binding domain-containing protein that activates PKR in response to cellular stress (Patel 19980). Lysates from 293T cells transfected with either p58-encoding vector (3.5 μg) or PACT (3.5 μg) and Flag TIRAP (1.5 μg) were subject to immunoprecipitation analyses followed by SDS-PAGE and immunoblotting with the indicated antibodies.

PACT = target: T5, PACT (Homo sapiens, UniProt O75569); experiment: Co-immunoprecipitation with PACT in 293T cells; format: binding; details: 293T cell lysates
T5 construct: expressed in transfected cells; host or cells: 293T cells
T5 sequence (O75569 1-313): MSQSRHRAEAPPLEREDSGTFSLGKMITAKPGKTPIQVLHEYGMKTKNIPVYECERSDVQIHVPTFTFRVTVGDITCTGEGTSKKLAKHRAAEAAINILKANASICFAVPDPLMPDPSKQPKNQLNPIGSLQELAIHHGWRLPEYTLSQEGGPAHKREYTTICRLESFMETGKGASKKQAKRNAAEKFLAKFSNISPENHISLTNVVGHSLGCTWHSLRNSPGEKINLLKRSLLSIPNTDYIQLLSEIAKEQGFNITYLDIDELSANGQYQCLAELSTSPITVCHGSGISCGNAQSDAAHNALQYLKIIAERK
Description: as §5

NF-κB promoter = experiment: NF-κB-dependent luciferase reporter assay, 293T cells co-transfected with TIRAP constructs; details: 2.0 μg construct, 24 h post-transfection
Description: To determine the effect of various TIRAP constructs on the promoter activity of NF-κB, 293T cells were co-transfected with 2.0 μg of the indicated TIRAP construct and 0.1 μg of an NF-κB-dependent luciferase reporter gene. pcDNA3 is an empty vector control; TIRAP is a vector encoding the full length TIRAP protein; TIRAP N is a vector encoding the N-terminal domain of TIRAP; TIRAP C is a vector encoding the C terminal domain of TIRAP; and TIRAP P125H is a vector encoding a mutant form of TIRAP containing a proline to histidine mutation at amino acid position 125. Cells were harvested 24 h post-transfection and lysed for analysis in a standard luciferase reporter assay. Luciferase activity is expressed as fold induction relative to mock transfected cells (FIG. 2A).

T2 sequence (Q99836 whole entry, species assumed): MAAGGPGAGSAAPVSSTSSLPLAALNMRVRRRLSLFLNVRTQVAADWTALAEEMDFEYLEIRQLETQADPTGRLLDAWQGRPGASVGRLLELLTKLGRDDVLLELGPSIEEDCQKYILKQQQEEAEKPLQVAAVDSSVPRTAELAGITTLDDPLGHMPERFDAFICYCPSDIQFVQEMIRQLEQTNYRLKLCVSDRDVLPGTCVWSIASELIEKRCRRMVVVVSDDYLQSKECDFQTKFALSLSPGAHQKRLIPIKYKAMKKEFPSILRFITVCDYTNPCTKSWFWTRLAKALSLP
Chain of IRAK (P51617 whole entry, species assumed): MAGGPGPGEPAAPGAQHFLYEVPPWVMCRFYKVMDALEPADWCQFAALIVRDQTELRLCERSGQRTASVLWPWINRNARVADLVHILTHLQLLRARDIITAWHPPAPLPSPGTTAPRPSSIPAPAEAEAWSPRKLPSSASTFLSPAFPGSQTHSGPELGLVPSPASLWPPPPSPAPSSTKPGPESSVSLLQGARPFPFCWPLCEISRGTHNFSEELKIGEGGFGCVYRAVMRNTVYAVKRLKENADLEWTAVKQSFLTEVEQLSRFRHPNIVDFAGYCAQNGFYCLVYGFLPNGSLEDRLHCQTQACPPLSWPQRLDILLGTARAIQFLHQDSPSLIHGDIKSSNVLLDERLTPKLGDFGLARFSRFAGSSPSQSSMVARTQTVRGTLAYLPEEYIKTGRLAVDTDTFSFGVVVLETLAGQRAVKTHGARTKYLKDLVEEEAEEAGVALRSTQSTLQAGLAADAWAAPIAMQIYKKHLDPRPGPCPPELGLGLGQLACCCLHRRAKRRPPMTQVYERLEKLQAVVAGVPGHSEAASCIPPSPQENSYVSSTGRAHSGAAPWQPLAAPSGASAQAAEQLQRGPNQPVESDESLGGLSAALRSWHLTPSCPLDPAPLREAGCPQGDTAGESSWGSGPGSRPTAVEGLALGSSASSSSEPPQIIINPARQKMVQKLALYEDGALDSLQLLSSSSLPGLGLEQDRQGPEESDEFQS
T3 sequence (P58753 1-235 isoform P58753-2): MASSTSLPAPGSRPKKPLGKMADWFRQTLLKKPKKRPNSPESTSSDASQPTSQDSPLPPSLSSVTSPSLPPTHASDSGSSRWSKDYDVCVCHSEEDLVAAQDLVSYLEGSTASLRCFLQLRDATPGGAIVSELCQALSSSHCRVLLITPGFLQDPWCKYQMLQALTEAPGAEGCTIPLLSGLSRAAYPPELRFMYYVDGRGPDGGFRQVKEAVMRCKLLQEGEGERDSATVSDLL

In the case of “TIRAP: vector encoding the full length TIRAP protein (Toll/Interleukin-1 Receptor Adapter Protein)”, the “co-immunoprecipitation with TLR4” value (TLR4) is reported as “co-immunoprecipitate”, the “interaction with MyD88 (co-immunoprecipitation)” value (MyD88) is reported as “does not interact” and the “association with IRAK” value (IRAK) is reported as “failed to associate”. The “co-immunoprecipitation of TIRAP with itself (homodimerization)” value (TIRAP) was “can be co-immunoprecipitated with itself”, the “direct interaction with the TIR domain of TLR4” value (TIR domain of TLR4) was “detected” and the “co-immunoprecipitation with PKR” value (PKR) was “co-immunoprecipitate”. The “co-immunoprecipitation with p58” value (p58) was “immunoprecipitate”, the “co-immunoprecipitation with PACT” value (PACT) was “immunoprecipitate” and the “activation of the NF-κB promoter, luciferase activity as fold induction relative to mock transfected cells” value (NF-κB promoter) was “approximately 80 fold induction”.
